# Key:
# [1] = test system: TIB214, an IL15 sensitive cell line; assay: SADA-Cytokine dependent proliferation; type: cell-based
# Text: (§1) […] to FIG. 11D depict in vitro activity of P53-Cytokine, P63-Cytokine and P73-Cytokine SADA-Cytokines. FIG. 11A depicts a graph showing SADA-Cytokine dependent proliferation. The dose dependent proliferative response of TIB214 cells to each of P53-Cytokine (circles), P63-Cytokine (squares) and P73-Cytokine (triangles) is shown. FIG. 11B depicts a graph showing NK Cell cytotoxicity improvement from SADA-Cytokine stimulation. Bar graph summarizes peak cytotoxicity improvement from exposure of human NK cells to each SADA-Cytokine for 3 days. Cytotoxicity was assessed over a 4 hr period using a GD2(+) cell line that is sensitive to NK mediated killing and an anti-GD2 IgG (Ahmed, M. et al. (2015) OncoImmunology). Control (black bar), P53-Cytokine (medium gray bar), P63-Cytokine (dark gray bar) and P73-Cytokine (light gray bar). FIG. 11C depicts a graph showing T Cell cytotoxicity improvement from SADA-Cytokine stimulation. Bar graph summarizes peak cytotoxicity improvement from exposure of human T cells to each SADA-Cytokine for 3 days. Cytotoxicity was assessed over a 4 hr period using a GD2(+) cell line and a T-cell engaging anti-GD2 IgG-scFv bispecific (Xu, H. et al. (2015) Cancer immunology research). Control (black bar), P53-Cytokine (medium gray bar), P63-Cytokine (dark gray bar) and P73-Cytokine (light gray bar). FIG. 11D depicts a graph showing tumor growth in DKO mice with GD2(+) tumors implanted subcutaneously. Each mouse was treated with PBMCs (gray triangles) and a low dose of an anti-tumor IgG-scFv (Xu, H. et al. (2015) Cancer immunology research) and additional cytokines. Untreated tumors grew out very quickly (black lines). Tumors treated with the IgG-scFv and an Fc-Cytokine (Liu et al. 2016 JBC, http://www.jbc.org/content/291/46/23869) with a mutation to improve binding (light gray line) shrunk tumors slower than mice treated with the IgG-scFv and SADA-Cytokine (dark gray line).
# (§2) This example documents the in vitro activity of exemplary SADA-cytokine multimers. […] Additionally, each complex could prime effector immune cells to kill more strongly. […]
# [2] = test system: human T cells; assay: T cell cytotoxicity improvement from SADA-Cytokine stimulation; type: cell-based; conditions: incubated three days; cytotoxicity over a 4 hr period, GD2(+) cell line
# Text: as §1, §2
# [3] = test system: Human NK cells; assay: NK cell cytotoxicity improvement from SADA-Cytokine stimulation; type: cell-based; conditions: 1 nM for three days; cytotoxicity over a 4 hr period
# Text: as §1, §2
# [4] = test system: tumors; type: in vivo, mice
# Description: FIG. 8A and FIG. 8B depict tumor responses after treatment with a SADA-BiDE construct P53-BIDE(NOHIS) in vivo. FIG. 8A depicts a graph showing the change in tumor volume after administration of 1 (circles) or 4 (squares) doses of P53-BiDE. As a reference other mice were also treated with IgG-BiDE (Cheal, S. M. et al. (2014) Mol Cancer Ther) and clearing agent (triangles). FIG. 8B provides images of an exemplary mouse treated with a single dose of P53-BIDE(NOHIS) from the experimental data shown in FIG. 8A. Images are shown of the mouse on days 1, 8 and 15 with a box around the site of the tumor.
# In mice with significant tumor burden (>500 mm^3 tumor volumes) a single 250 μg (1.25 nmol) dose of P53-BIDE(NOHIS) was administered followed 24 hour later by administration of 2mCi of ^177Lu-Bn-DOTA.
# [5] = Blood and tumor activity after P53-BiDE(noHIS) and 177Lu-Bn-DOTA administration (FIG. 6A, 6D, 6E); type: in vivo, mice; conditions: mouse, in vivo
# Description: FIG. 6A to FIG. 6E depict pharmacokinetics of exemplary SADA-BiDE constructs in vivo. FIG. 6A depicts activity over time after P53-BiDE(noHIS) and Bn-DOTA administration. Each line represents one group, with three mice per group. Triangles denote a group that received P53-BiDE(noHIS) followed by clearing agent (CA) 72 hours later. Squares denote a group that received P53-BiDE(noHIS) without any clearing agent before ^177Lu-Bn-DOTA administration. Circles denote a group that only received ^177Lu-Bn-DOTA but not any SADA-BiDE. Dashed lines correspond to the measured blood activity, while solid lines correspond to the activity measured in the tumor. […] FIG. 6B depicts blood activity of radiolabeled 131I-SADA-BiDE in tumor-free mice. Activity measurements were normalized to the initial measurement for each group. Each line represents one group, with 4-5 mice per group. (+) symbols denote P53-BiDE, (X) symbols denote P63-BiDE and circles denote P73-BiDE. FIG. 6C depicts blood activity in tumor bearing mice treated with either IgG-BiDE (Cheal, S. M. et al. (2014) Mol Cancer Ther) or SADA-BiDE and then injected with ^177Lu-Bn-DOTA. Each line represents one group, with 3-5 mice per group. Circles denote a group that received IgG-BiDE (Cheal, S. M. et al. (2014) Mol Cancer Ther) followed by clearing agent 48 hrs later. Squares denote a group that received P53-BiDE. Diamonds denote a group that received P63-BiDE. Hexagons denote a group that received P73-BiDE. No SADA-BiDE treated mice received any clearing agent. A representative anti-tumor IgG and ^177Lu-Bn-DOTA alone clearance curves were added as a reference. (+) symbols with a dotted line denote the ^124I-labeled anti-GD2 IgG, and (x) symbols with a dotted line denote ^177Lu-Bn-DOTA alone. […]
# Importantly, even though, as described in the previous examples, P53-BIDE(NOHIS), P53-BiDE, P63-BiDE and P73-BiDE is rapidly cleared from the serum, total tumor uptake of was not affected. With both 24 hours and 72 hours between P53-BIDE(NOHIS) and ^177Lu-Bn-DOTA injections, significant activity (˜15% ID/g) was measured at the tumor site (FIG. 6D) […]
Molecule,proliferation of TIB214 relative to untreated control cells [1],IgG-scFv dependent killing of tumor cells by T cells [2],NK cell cytotoxic response against a GD2(+) neuroblastoma cell line [3],"clinical or histologic toxicity ([4]; mouse, in vivo)","tumor response ([4]; tumor volumes >500 mm^3, single 250 μg (1.25 nmol) dose, 2mCi 177Lu-Bn-DOTA 24 hour later, no CA)",activity measured at the tumor site [5],clearance from blood without clearing agent [5],retention at the target site [5]
"P53-Cytokine: IL15Rα, huP53-tet, IgG3 spacer; associates non-covalently with soluble IL15; SEQ ID NO: 57 (protein) ITCPPPMSVEHADIWVKSYSLYSRERYICNSGFKRKAGTSSLTECVLNKATNVAHWTTPSLKCIRTPLGDTTHTSGKPLDGEYFTLQIRGRERFEMFRELNEALELKDAQAGKEPGGSGGAPHHHHHH",robust proliferation,strongly increased IgG-scFv dependent killing,increased antibody-independent cytotoxic response,–,–,–,–,–
"P73-Cytokine: IL15Rα, huP73-tet, IgG3 spacer; associates non-covalently with soluble IL15; SEQ ID NO: 61 (protein) ITCPPPMSVEHADIWVKSYSLYSRERYICNSGFKRKAGTSSLTECVLNKATNVAHWTTPSLKCIRTPLGDTTHTSGRHGDEDTYYLQVRGRENFEILMKLKESLELMELVPQPLVDSYRQQQQLLQRPGGSGGAPHHHHHH",robust proliferation,strongly increased IgG-scFv dependent killing,increased antibody-independent cytotoxic response,–,–,–,–,–
"P53-BiDE(noHIS): hu3F8-scFv, huC825-scFv, huP53-tet, GS linker, IgG3 spacer, lacks terminal HIS tag; SEQ ID NO: 17 (protein) EIVMTQTPATLSVSAGERVTITCKASQSVSNDVTWYQQKPGQAPRLLIYSASNRYSGVPARFSGSGYGTEFTFTISSVQSEDFAVYFCQQDYSSFGCGTKLEIKRGGGGSGGGGSGGGGSQVQLVESGPGVVQPGRSLRISCAVSGFSVTNYGVHWVRQPPGKCLEWLGVIWAGGITNYNSAFMSRLTISKDNSKNTVYLQMNSLRAEDTAMYYCASRGGHYGYALDYWGQGTLVTVSSGGGGSGGGGSGGGGSGGGGSHVQLVESGGGLVQPGGSLRLSCAASGFSLTDYGVHWVRQAPGKGLEWLGVIWSGGGTAYNTALISRFTISRDNSKNTLYLQMNSLRAEDTAVYYCARRGSYPYNYFDAWGCGTLVTVSSGGGGSGGGGSGGGGSQAVVTQEPSLTVSPGGTVTLTCGSSTGAVTASNYANWVQQKPGQCPRGLIGGHNNRPPGVPARFSGSLLGGKAALTLLGAQPEDEAEYYCALWYSDHWVIGGGTKLTVLGTPLGDTTHTSGKPLDGEYFTLQIRGRERFEMFRELNEALELKDAQAGKEPGGSGGA",–,–,–,did not induce any clinical or histologic toxicity,completely ablate tumors in all four mice treated,~15 % ID/g,almost completely cleared,stably retained at the target site
"P63-Cytokine: IL15Rα, huP63-tet, IgG3 spacer; associates non-covalently with soluble IL15; SEQ ID NO: 59 (protein) ITCPPPMSVEHADIWVKSYSLYSRERYICNSGFKRKAGTSSLTECVLNKATNVAHWTTPSLKCIRTPLGDTTHTSGRSPDDELLYLPVRGRETYEMLLKIKESLELMQYLPQHTIETYRQQQQQQHQHLLQKQGGSGGAPHHHHHH",robust proliferation,strongly increased IgG-scFv dependent killing,increased antibody-independent cytotoxic response,–,–,–,–,–

# — patent US11583588B2, “Modular self assembly disassembly (SADA) technologies” (MEMORIAL SLOAN KETTERING CANCER CENTER, priority 2017, dated 2023)
